In PMC2677865:

Columns and labels:
Assay in all cases: two-hybrid
BD-CK2α = BD-CK2α (UniProt Q60737)
BD-CK2β = BD-CK2β (UniProt P67871)
[1] = target: GAL4-DB-CK2α′ fusion protein (mouse) (UniProt O54833)
BD-CKT2 (mouse) = BD-CKT2 (mouse) (UniProt Q8CH19)
BD-CKT2 1-137 (mouse) = BD-CKT2 1-137 (mouse) (UniProt Q8CH19)
BD-CKT2 138-276 (mouse) = BD-CKT2 138-276 (mouse) (UniProt Q8CH19)

Chain of UniProt Q60737 (Q60737 whole entry): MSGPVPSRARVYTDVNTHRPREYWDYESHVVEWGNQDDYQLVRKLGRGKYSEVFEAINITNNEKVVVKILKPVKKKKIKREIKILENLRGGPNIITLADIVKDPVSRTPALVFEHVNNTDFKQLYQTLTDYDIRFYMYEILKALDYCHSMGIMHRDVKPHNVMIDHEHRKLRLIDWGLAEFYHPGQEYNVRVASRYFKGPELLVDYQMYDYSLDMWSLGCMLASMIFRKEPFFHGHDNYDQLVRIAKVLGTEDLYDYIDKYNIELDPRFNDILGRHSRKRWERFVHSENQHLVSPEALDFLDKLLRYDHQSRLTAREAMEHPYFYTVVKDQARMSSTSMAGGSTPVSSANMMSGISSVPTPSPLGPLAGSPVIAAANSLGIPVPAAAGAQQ
Chain of UniProt P67871 (P67871 whole entry, the tested form may be a part): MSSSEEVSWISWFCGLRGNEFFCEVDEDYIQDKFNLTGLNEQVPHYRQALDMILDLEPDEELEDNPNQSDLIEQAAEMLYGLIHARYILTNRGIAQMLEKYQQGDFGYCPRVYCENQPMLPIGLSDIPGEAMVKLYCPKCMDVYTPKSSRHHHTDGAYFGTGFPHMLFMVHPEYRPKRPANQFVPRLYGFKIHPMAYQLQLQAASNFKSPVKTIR

| β-Gal activity (BD-CK2α) | β-Gal activity (BD-CK2β) | β-Gal activity [1] | β-Gal activity (BD-CKT2 (mouse)) | β-Gal activity (BD-CKT2 1-137 (mouse)) | β-Gal activity (BD-CKT2 138-276 (mouse)) | Molecule |
| --- | --- | --- | --- | --- | --- | --- |
| 1 | < 0.05 | 5.8 |  |  |  | CKT2 (CK2 Target protein 2), full length, in pACT2 (from UniProt Q8CH19 1-720) (natural protein) |
|  |  |  | 5.2 | 2.8 | 6.5 | CK2α′ as the active (activation) domain fusion (natural protein) MPGPAAGSRARVYAEVNSLRSREYWDYEAHVPSWGNQDDYQLVRKLGRGKYSEVFEAINITNNERVVVKILKPVKKKKIKREVKILENLRGGTNIIKLIDTVKDPVSKTPALVFEYINNTDFKQLYQILTDFDIRFYMYELLKALDYCHSKGIMHRDVKPHNVMIDHQQKKLRLIDWGLAEFYHPAQEYNVRVASRYFKGPELLVDYQMYDYSLDMWSLGCMLASMIFRKEPFFHGQDNYDQLVRIAKVLGTDELYGYLKKYHIDLDPHFNDILGQHSRKRWENFIHSENRHLVSPEALDLLDKLLRYDHQQRLTAKEAMEHPYFYPVVKEQSQPCAENTVLSSGLTAAR |
